Assay results reported in patent US20230226096A1 (Orna Therapeutics, Inc., priority 2020, published 2023).

B1: Kagoshima-2-24-KoV (nucleic acid, listed as Kobuvirus sp.)
DNA: TATAGTTTGCCTGTTTCTCGCACCGTTACCGCTCGTTCGGGAATGTGAAACTGGCACCCCTCCTCTCCCCTACCACCCTTTCTCCTTCGCCCCCATTCATAATTTACAACGCCGCACACAGCGGCGGCCGCCAAGGGCTAGCCTGGCGGTTATAAAAGGAACCTGGGTCTTTCCCTCTTCAAGCCAAAAGGTAGGTTCCCTGTGTCCCTGAATGCTCGGTGAGGAATGCTGCACCGTAACGCTTTGTGAAGTGTTTGCAAGTTCTGGCCCGGCAAGCCTACAGAGTGCTGTGATCCGCTGCGGACGCCATCCTGGTAACAGGACCCCCAGTGTGCGCAACAGTATGTTCAGACTTCGGTTTGTTCACTTGCTTTCATGGACCATTGCGCGAAAGTGCGTGCGCCATATCCCTGTACTTCAGGTGTGCTTCTCTGGACCCTAGGAATGCTGCGAAGGTACCCCGTTTCGGCGGGATCTGATCGCAGGCTAATTGTCTATGGGTTCAGTTTCCTTTTTCTTTACTCCACAATTGACTGCTTAACTGACTCTGGATCTTGTGCTTCCACTGCTCTTTCTGCTCTCAAAACGGCTTCACTTACCAACTCTCACCTTTCGACCAACACCATTTACACACTAACTTTTTTCGACTCTTCTGACTCCTGGCTTGGTGAAGAC
B2: Hubei picorna-like virus 2 (nucleic acid)
DNA: AGCAACTTCTTTCTGAAAACTAGCTAGAGTTCGACGATCTCTCTGGCTAATGACAAATAACCAATCAAAAAGTCAAATGTTCATGTATATATATATTTAGTAGTGACCTTTATTTAGAAAAACTTTAGATGATTTATCGTCAAGTTGCCCTTTGTGAAGCGATCAGCTTTTTATATCGTTTCATTTTTGTATACGTCTTAATTGACGTTGTAAGTACGTTTTGCATACCTCACATTGAGGATAGTATCGTTTCCTGACTAAGAAGTTAAACTAGTCTACCAATAGCAACCATATAGGATATAGCTTTGTTTTTAACAAGGTTTAATCTGATCTTATGCTCTTGCTTACGGTGTTTTATGTATAGAAAAGTTTTTATAAAAACTACATAATTGTCAAAAGAAAAAGCGTTACGTACTGACGCATTTATGTTCACAGTGTGACACAAACCTTCTATATTTTGATTGTAAAATAGGCTTTGCCTGACCATTTATCAAATACAAACTGTTTCAAACGCCTCTCCGAGCCATATTGGCCGACGCGAATCGACATAACAGGGTGAGTTTACAGCTGCAGTTGCAGCCGAGGATCCACTTATTTGAGAGAGAATTACTCTTAACGAAATTTTGAAGTCACTTCTACACAGTTAAGTCTGAGTAGGCGTTATCCAAACGTAAA
B3: Hubei sobemo-like virus 3 (nucleic acid)
DNA: GAGATGTTTGCGTGGGCCGTTGCGCTGCGGGCGGCCCACCTCCCTACGGGGACCGTGAGACACCGCTGGGGAAGGCCCCCACCCCCGGCCAAGGGGATCCTGCCGAGAGGCAGGAGAAAGAGGCCCAGCCCTCTGGGGCGCCTTTAGGGGTGCCTGGGAGGGAAGTACCCGAGCCGGGCGGCCGGTCGGGTGCGGCTGTGCAGTTCGAGGCTAACCGTAAGGAAGGCCTGAGCTGCCTCGGCTTGTCGGAAAGGAAGACGAAGGCACTTATCAAGGCTTTCAGGAAGCAGGAGCGCAATTACAGCGCGCGCCGTGCGGCCTGGATTAACCGCATTTGGCCG
B4: Harrier picornavirus 1 (nucleic acid)
DNA: GATGTGTGACGGTGTAATTACTTTCCGGATCCCACTTTCCTATTATAACTCTTTCATCCCAAGGTTAGGGAAAGAACCTGGCTCGGTACCACCAGACCCTCCGCCACGCTAGTGGACTCTCCGGAGATAACGGTACCCCCTTTGTAGTCACCTGTGCTGGTGAAGAACCACCTAGTATTGCTTGGGTGCGTGCCGCCTAGCTTCCATTTCTTCTGGAGCACTGTGCAATGAGGTTTCCCCACTTGGTAACAAGTGCCTCAGGTCCCGCAAGGATACTGTGGGGTGGTGTGACCGCAGGGAGCTGTCTCCACGGCTCCTCTAATGTTACGCCGCTATCCACAGGCCAGTGCGTGTCATCGATCCCGGATGACAGAGCTAGTATTGCGAACCCCCAAGTAAGAAAAGTGGCTAGTAACCTGATAGCTGGTGAAGAGGGTGGGTCAGTTGAGTAGATGCCCTAGAGGTACCCGAAAGGATCTGACTAGGGACCCGTGACTATACATTAGGTAAACCGGGTATAAAAACCATGAAAAACTGACCACTTTTCTTTTAACCTCTTCTTTCTTTTTATGTGTGTTAAGTGTTTTGAGTTTGGACTGTACCTTGCCCGCCTTTCTTGGATTTTCTCTATCGCTCTTCTTACACCTACTGTTATCAAGGCACTCTTTAGAGATA
B5: Hepacivirus P (nucleic acid, listed as Hepacivirus sp.)
DNA: ACATGGGGGGGGGCTGACAGTGAGTACACTGTGCCAAGCAGGTGCTACGCTATGCCTAGGTGCTGCTGTAGGCCAAGGACATGTCCCAGTCATCCCAGGTGAGGGGGGGGGTTCCCCTCACCGCTGCCACTGCCTGATAGGGTCCTGCCGGAGGGTCTCGGTGTCCGGCTGTAC
B6: Hubei tombus-like virus 32 (nucleic acid)
DNA: TTCGGGTTTACCCGCGTAAGCGGCCACACTGACTGGTTGTCGGTGTTGAATTTGTATACCAGATGAGGAGACGTTACCACCGTCTCGGCAGTGCTACGTCTGGGAAAGGACTGTGATAGTGGACAGTCCTACCGTCTTTAGATACATTGCGTTGTGTATAGCCCGGGAGGGATTAACTAATAGCAACGCAATGCACACGGCGGTTCGGATTTGCTTGACTGATGGAAAGACATCTAAGTTCTAATTGAACC
B7: Kunsagivirus 1 (nucleic acid, listed as Kunsagivirus sp.)
DNA: TTTCAAATCGGACTCCGGTAGTTATACCGGAGCCCGGTTTGGACGCTTGGGCCGCGTTAACAGCCCCCCACCCCTTTCCCACTGACTGATTTCTCGGATTGGACTCATTTGCATTGCTAACTCTGATTCTGGATTTCCCCGTTTATGTCGTCGCGGTCGGAAGTGCACGTACTTCGACGTTGATCTGATGGCGTTTGTTTCCAGGGGGGAGGTGGCGGCAGAAACGCCCCCGCCGTAAACTTCGGCGGGCCACGCCTGTCAAGCCACTCCCTGGGGCCGAGCGCCTGAGGTGATACAGAGAGATAAGCACACTGGGCGCTGACAACGCCCGGGACCTCAGTGAGAAGAGCAGTAGGGCCGTGTTTATGGGACTCCATTGGATATCCCCCGCTTGTCGGAACTCACGGCTACTCCGGGTTGGGAAGCCCGCGACTGGTACTGTACTGGGTGATAGCCTGGTGCCTTCCCTCTCACTGTTGTATGAAGGCTGAAAACCCCCT
B8: Megirivirus C (nucleic acid)
DNA: TTCCCGACCGGTCTGGCAAACCGGACGGTTATCCTGGTTAGATGTCTGATGGTTGCTGGAACGTGGTGGCTACTGCTGCCACCTTCTGGCTTCCTTTAATGGGCATCTAGCTGGGTTCTTTGCCACAATCCATCTTACTCTCTTACCCATTTTCTATTACCCAGACTTGTTGTTAACTGGTAAAGTTGACCTACTGGCTTCGTTTTGAGACTATTCTGGTGTTGGTGGACACTCTTTCCACAAGTAGATTGTATGGAGTTCATGCTCGTTTTGAACCGGGAATGGCACAACCCGTAGTAGGATCTTGCCTCTGCCATACTAATCTGCGCCTGTTGCTTTTAGACTATGGGCTGCTAAGGATGACATTGGAACCCCTTTTTGGATATTCCATGTCAAGTCAACTGTTTCATCTGGTGTACGCTGGAAATCCTTGTTCCGAGGTCTTGTCTGGAGGTGGTGCTGAAATATTGCAAGCCACAGGCAGTTCCTTGGACTTGGTGCCGCTATCAGATGCTACACCCTCTATGGGCAAATGTTGAACCTTAGTGGACGCGTGAGATGGGAATCCACGCCGGCCATAGACTGGCTGATAAGCTCGCGGCTGATCGAGTTGCAACAGTAATCAGTTGATTTGCCACT

What follows are molecules tested on HEK293 cells. Details: luminescence from secreted Gluc in supernatant 24 hours after transfection of HEK293 cells; circular RNA encoding Gluc with the named IRES (UTR truncated to 675 nt).
Format: cell-based, human
With B1 the Expression was 9.30E+07.
B2 showed an Expression of 1.95E+05.
B3 gave an Expression of 1.17E+05.
B4 showed an Expression of 1.47E+05.
In the case of B5, the Expression is reported as 6.04E+05.
B6 gave an Expression of 9.23E+04.
For B7, the Expression was 4.15E+05.
For B8, the Expression was 1.24E+05.
